The Human Domainome abundance scans (Beltran et al. 2025)
± gives the uncertainty stated by the source.

B1: SAM and SH3 domain-containing protein 1, residues 630 to 700; numbered along this chain, O94885 (parent)
chain: GRPPQPKSVEDLLDRINLKEHMPTFLFNGYEDLDTFKLLEEEDLDELNIRDPEHRAVLLTAVELLQEYDSN

Variants of: B1
Assay: abundance fitness (aPCA) (normalised: wild type 0, dead -1); higher = more abundant; growth selection in yeast, the domain comes from the species named
Conditions: Homo sapiens

Row | Variant | abundance fitness
1 | D11V | -0.852 ± 0.068
2 | D11C | -0.795 ± 0.079
3 | D11P | -0.92 ± 0.071
4 | D11Y | -0.717 ± 0.067
5 | D11R | -0.926 ± 0.07
6 | D11L | -0.9 ± 0.057
7 | D11I | -1.08 ± 0.11
8 | E31V | -0.003 ± 0.035
9 | E31I | -0.288 ± 0.049
10 | E31R | 0.127 ± 0.032
11 | E31W | -0.248 ± 0.049
12 | R15H | -0.342 ± 0.054
13 | R15Y | -0.3 ± 0.053
14 | R15I | -0.23 ± 0.051
15 | R15L | -0.223 ± 0.037
16 | R15T | -0.164 ± 0.04
17 | R15N | -0.075 ± 0.046
18 | L44D | -0.819 ± 0.087
19 | L44C | -0.598 ± 0.075
20 | L44A | -0.779 ± 0.061
21 | L44V | -0.791 ± 0.059
22 | N28R | -0.607 ± 0.049
23 | N28K | -0.426 ± 0.064
24 | N28M | -0.687 ± 0.081

Row | Variant | abundance fitness
25 | N28D | -0.812 ± 0.091
26 | N48F | -0.983 ± 0.19
27 | N48D | 0.024 ± 0.093
28 | N48W | -0.775 ± 0.15
29 | N48E | 0.084 ± 0.099
30 | N48M | -0.516 ± 0.14
31 | N48C | -0.273 ± 0.12
32 | N48S | -0.388 ± 0.08
33 | E10I | -0.446 ± 0.056
34 | E10W | -0.511 ± 0.086
35 | E10V | -0.413 ± 0.053
36 | E10K | -0.407 ± 0.066
37 | L47Q | -0.805 ± 0.092
38 | L47V | -0.781 ± 0.051
39 | D51S | -0.49 ± 0.04
40 | D51R | -0.611 ± 0.046
41 | N17C | -0.486 ± 0.068
42 | N17R | -0.645 ± 0.051
43 | N17W | -0.956 ± 0.096
44 | N17H | -0.2 ± 0.049
45 | N17K | -0.341 ± 0.051
46 | R50N | -0.027 ± 0.046
47 | R50Q | 0.039 ± 0.048
48 | R50F | -0.071 ± 0.049

Row | Variant | abundance fitness
49 | P3M | 0.008 ± 0.049
50 | P3N | -0.038 ± 0.049
51 | P3C | -0.073 ± 0.052
52 | P3H | -0.094 ± 0.047
53 | P3A | -0.115 ± 0.043
54 | L33S | -0.812 ± 0.066
55 | L33Q | -0.73 ± 0.11
56 | L33P | -0.896 ± 0.095
57 | L33T | -0.828 ± 0.08
58 | L59H | -0.564 ± 0.058
59 | L59C | -0.678 ± 0.064
60 | L59G | -0.511 ± 0.052
61 | L59A | -0.569 ± 0.053
62 | L59W | -0.822 ± 0.079
63 | L59D | -0.577 ± 0.067
64 | Y30D | -0.705 ± 0.077
65 | Y30T | -0.906 ± 0.07
66 | Y30E | -0.515 ± 0.092
67 | Y30W | -0.012 ± 0.054
68 | D34E | 0.041 ± 0.048
69 | D34A | -0.145 ± 0.04
70 | D34M | -0.518 ± 0.058
71 | D34P | -0.664 ± 0.056
72 | E41V | -0.495 ± 0.056

Row | Variant | abundance fitness
73 | E41H | -0.7 ± 0.076
74 | E41W | -0.567 ± 0.091
75 | E41A | -0.075 ± 0.048
76 | E41C | -0.483 ± 0.067
77 | E41I | -0.588 ± 0.072
78 | T60D | 0.245 ± 0.05
79 | T60W | -0.378 ± 0.056
80 | T60G | 0.071 ± 0.042
81 | T60I | -0.927 ± 0.082
82 | T60R | 0.237 ± 0.032
83 | T60L | -0.579 ± 0.046
84 | T60N | 0.348 ± 0.038
85 | T60M | -0.385 ± 0.055
86 | T60S | 0.227 ± 0.032
87 | T35N | -0.159 ± 0.049
88 | T35D | 0.108 ± 0.051
89 | T35W | -0.973 ± 0.12
90 | T35F | -0.911 ± 0.099
91 | T24E | -0.435 ± 0.077
92 | T24H | -0.698 ± 0.064
93 | T24W | -0.892 ± 0.095
94 | T24R | -0.367 ± 0.04
95 | E63T | -0.226 ± 0.04
96 | E63R | 0.133 ± 0.035

Row | Variant | abundance fitness
97 | E63Q | -0.018 ± 0.046
98 | E63L | -0.587 ± 0.046
99 | E63V | -0.831 ± 0.059
100 | E40I | -0.431 ± 0.055
101 | E40V | -0.088 ± 0.047
102 | E40Q | 0.222 ± 0.049
103 | E40P | -0.914 ± 0.075
104 | L39N | -0.851 ± 0.075
105 | L39R | -0.861 ± 0.059
106 | L39G | -0.812 ± 0.067
107 | L39W | -1.19 ± 0.14
108 | L39D | -0.799 ± 0.081
109 | L39F | -0.973 ± 0.079
110 | L39V | -0.422 ± 0.049
111 | R2D | -0.137 ± 0.063
112 | R2I | -0.011 ± 0.047
113 | R2T | -0.239 ± 0.048
114 | R2S | -0.446 ± 0.056
115 | R2V | -0.472 ± 0.064
116 | R2W | -0.643 ± 0.11
117 | L58M | -0.717 ± 0.078
118 | L58G | -0.667 ± 0.068
119 | L58W | -0.819 ± 0.11
120 | I49E | -0.79 ± 0.082

Row | Variant | abundance fitness
121 | I49H | -0.784 ± 0.068
122 | I49K | -0.863 ± 0.08
123 | V62N | -0.578 ± 0.09
124 | V62A | -0.091 ± 0.049
125 | V62E | -0.489 ± 0.1
126 | V62W | -0.8 ± 0.079
127 | V62H | -0.596 ± 0.072
128 | K7P | -0.679 ± 0.063
129 | K7L | -0.323 ± 0.041
130 | K7H | -0.308 ± 0.047
131 | E42A | 0.104 ± 0.04
132 | E42K | 0.283 ± 0.048
133 | E42Y | -0.539 ± 0.056
134 | E42P | -0.124 ± 0.042
135 | I16A | -0.424 ± 0.062
136 | I16H | -0.278 ± 0.069
137 | I16F | -0.266 ± 0.064
138 | I16T | -0.589 ± 0.076
139 | I16N | -0.326 ± 0.067
140 | R55N | -0.891 ± 0.086
141 | R55W | -1.14 ± 0.14
142 | H21S | -0.785 ± 0.05
143 | H21V | -0.607 ± 0.056
144 | H21R | -0.921 ± 0.056

Row | Variant | abundance fitness
145 | H21A | -0.85 ± 0.068
146 | V9G | -0.868 ± 0.081
147 | V9Y | -0.883 ± 0.087
148 | V9T | -0.701 ± 0.056
149 | V9M | -0.52 ± 0.07
150 | V9C | -0.892 ± 0.13
151 | V9D | -0.736 ± 0.089
152 | P4N | 0.09 ± 0.05
153 | P4D | 0.343 ± 0.055
154 | P4Q | 0.159 ± 0.056
155 | P4S | -0.03 ± 0.045
156 | P4H | -0.01 ± 0.054
157 | P52G | -0.71 ± 0.057
158 | P52Q | -0.424 ± 0.057
159 | P52E | -0.317 ± 0.059
160 | P52Y | -1.02 ± 0.097
161 | G29T | -0.917 ± 0.073
162 | G29V | -1.17 ± 0.089
163 | G29P | -0.967 ± 0.08
164 | G29M | -0.739 ± 0.089
165 | G29C | -1.12 ± 0.13
166 | G29H | -0.831 ± 0.081
167 | A56T | -0.114 ± 0.035
